Laboratory results reported in the nanobody polyreactivity screen of Harvey et al. (2022).

Experiment: yeast display, Sf9 membrane polyspecificity reagent, FACS + sequencing; frameworks hold sequencing errors
How it was run: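 A nanobody's polyreactivity label depends on the gate it was sorted from. Yeast display cells were stained with 10% biotinylated, detergent-solubilized Sf9 membrane reagent for 1 hour at 4 °C, enriched on streptavidin microbeads and sorted by FACS. The low and high (top ~1%) gates were set on anti-HA fluorescence for expression and streptavidin fluorescence for reagent binding.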

Sequence	polyreactivity (PSR sort gate)
QVQLVESGGGLVQAGGSLRLSCAASGFTFRRYAMGGYRQAPGKERELVAAISANGGSTYYADSVKGRFTISRDNAKNTVYLQMNSLKPEDTAVYYCNARKYTQSIHYDYWGQGTQVTVSS	high polyreactivity
QVQLLESGGGLVQAGRSLRLSCAASGNTFDEYVKGWYRQAPGKESELDASIDWSGGGTYYADSVKGRFTISRDNAKNTVYLQMNSLKPEDTAVFYCNADYFDYSRTRYDYWGQGTQVNVSS	low polyreactivity
QGQLVESGGGVVQAGGSLRLSSAASRRIFYSYPLGWYRPAPGKERELVAAISSSGGITYYADSVKGRFTISRDNAKNTGSLELNSLKPEDTAVYYCAARRRYKSGYWGQGTQVTVSS	high polyreactivity
QVQLVESGGGVVQAGGSLRLSSAASGRIFQAYAMGWYRQAPGKEWELVAAISRSGGGTYYSDSVKGRFTISRDYAKNTVYLQMNSLKPEDTAVYYCNARGSTARGRGYWGQGTQVTVTS	high polyreactivity
QVQLVESGGGLVQAGGSLRLSCAASGRTFALYAMAWYRQAPGKERELVASISWRGGSTYYADSVKGRFTISRDNAKNTVYLQMNSLKPEDTAVYYCAADTWSYGPLNYRLEYWGQGTQVTVSS	low polyreactivity
QVQLVESGGGLVQAGGSLRLSCAASGRIFRKYTMGWYRQAPGKERELVAAISARGGSTYYADSVKGRFTISRDNAKNTVYLQMNSLKPEDTAVYYCTTSPIGNITYRYDYWGQGTQVTVSS	high polyreactivity
QVQLVESGGGLVQAGGSLRLSCAASGNIFLSYAMGWYRQAPGKERELVAGISASGGRTYYADSVKGRFTISRDNAKNTVYLQMNSLKPEDTAVYYCATRNTRFHLDYWGQGTQVNVSS	high polyreactivity
QVQLVESCGGLVQAGGSLRLSCAASGLTFYQNDMGWYRQAPGKERELVAAITLSGDITYYADSVKGRFTISRDNAKNTVYLQMNSLKPEDTAVYYCAADGYLLYVQHPNGRRYDYWGQGTQVTVSS	low polyreactivity
QVQLVESGGRLVQAGGSHRLSCAASGRTFFHYAMGWYRQSPGKERELVAAITYRGTSTYYADSVKGRFTISRDNAKYTVYIQMNSLKPEDTAVYYCNAYSTRGGWSYRGDSWGQGTQVTVSS	high polyreactivity
QVHLVDSGGGLVQAGGSLRLSCAASGIIFTGNAMGWYRQAPGKERELVAGITGSGGNTYYADSVKGRFTISSDNAKNTVYLQMNCLKPEDTAVYYCAARRHIFLLIIWSGRVDYWGQGTQVTVSS	low polyreactivity
QVQLQESGGGLVQAGGSLRLTCAASGTITVLYKRGWFRQAPGKEREFVASINYGTSTYYADSVKGRFTVSRDSAINTVYLQMTSLKPEDTAVDYCAAAYRWQDVYRYWGQGTQVTVSS	low polyreactivity
QVQLVESGGGLVQAGGSLRLSCAASGSIFDTYAMGWYRQAPGKERELVAAITWSGSSTYYADSVKGRFTISRDNSKNTVYLQMNSLKPEDTAVYYCAKDYYREVTTEYDYWGQGTQVTVSS	high polyreactivity
QVQLVESGGGLVQAGGSLRLSCAASGRIFIYNVMGWYRQAPGKERELVATISTGGTTNYADSVKGRFTISRDNAKNTVYLQMNSLKPEDTAVYYCNRGSGYWYLPAVKYDHWGQGTQVTVSS	low polyreactivity
QVQLEESGGGLVQAGGSLRIICADSGINFRYNAMGLYRKAPGKERELVAGIRKRGGSTYYADSVKGRFTISRDNANNTVYLQMNSLKPEDTEVYYCAALCPTTGRNYHSTPYEYWGQGTQVTVSS	high polyreactivity
QVQLVESGGGLVQAGGSLRLSCAASGRIFYYYAMAWYRQAPGKERELVAAITRRGGSTYYADSVKGRFTISRDIAKNTVYFQMNSLKPEDTAVYYCAKPDRTGWLDGDYWGQGTQVTVSS	low polyreactivity
QVQLVESGGGLVQAGGSLRLSCAASGSTFPTNAMGWYRPAPGKERELVATFTTGGSTYYADSVKGRFTISRDNAKNTVYLQMNSLKPVDTAVYYCNAEYVYLIFSVYLYDYDYWGQVTQVTVSS	low polyreactivity
QVQLVESGGGLVQAGGSLRLSCAASGRIFKYYVMGWYRQAPGKESELVAAISSGSGSTYYADSVKGRFTISRDNAKNTVYLQMNSLKPEDTAVYYCNALSSWRRTYGSRYDYWGQGTQVTVSS	high polyreactivity
QVHLVESGGGLFQEGGSLRLSCAPSGSNFATYTMGWYRQAPGKERELVAAIRRSGGSTYYADSVKGRFTLSRDNAKNTVYLLMNSLKPEDTEVYYCAAKHYYYSPYVRYDPPPGYYWGQGTQVTVSS	high polyreactivity
QVQLVESAGGLVQAGGSLRLSCAASGIILYYYAMGWYRHAPGKERELVAAISSGGNTYYADSVKGRFTISRDNAKNTVYLQMNSLKPEDTAVYYCAAVTVIGGEYDYWGQGTQVTVSS	low polyreactivity
QVQLVESGGGLVQAGGSLRLSCAASGFIFLRYAMGWYRQAPGKERELVAAISSSGGRTTYADSVKGRFTISRDNAKNTLYLQMNSLKPEDTAVYYCNADLWPGNHDGYWGQGTQVTVSS	low polyreactivity
QVQLVESGGGLVQAGGSLRLSCAASGITFSRNAMGWYRQAPGKERELVAVISTRGGRTYYADSVKGRFTISRDNAKNTVYLQMNSLKPEDTAVYYCAASPDPYWRRMDYWGQGTQVTVSS	high polyreactivity
QVQLVESGGGLVQAGGSLRLSCAASGRIFPVYAMGWYRQAPGKERELVAAISKRDGSTSYADSVKGRFTISRDNAKNTVYLEMNSLKPEDTAVYYCAATYLLERPTSIHPRYDYWGQGTQVTVSS	low polyreactivity

Sequence	polyreactivity (PSR sort gate)
QVQLVETGGGLVQAGGSLRLSCAASGIIFSKYAMGRYRQAPGKERELVAAITRSGGSTYYADSVKGRFTISRDNAKNTVYLQMNSLKPEDTAVYYCAKRSGTPTNRQRYGYWGQGTQVTVSS	high polyreactivity
QVQLVESGGGLVQAGGSLRLSCAASGFIFVYYAMGWYRQAPGKERELVAAITSDVNTYYADSVKGRFSISRDNAKNTVYLHMNSLKPEDTAVDYCNADADDYRDYQDYDYWGQGSQVTVSS	low polyreactivity
QVQRVESGGGLVQAGGILRLSCAASGSTFREYTMGWYRQAPGKEKELVAAITNSGGSTYYADSVKGRFTISRDNEKNTVYLQMNSLKPEDTAVYYCAADVGIVDYDYWGQGTQVTVSS	low polyreactivity
QVQLVESGGGLVQAGGSLRLSCADSGSIFAYYARGWYRQAPGKERELVAAISQSGGSTYYAYSVKGRFTISRDTAKNTVYLQMNSLKPEDTAVYYCAARFRYGYTGYRYDYWGQGTQVTVSS	high polyreactivity
QVQLVESGGGLVQAGGSLRLSCAASGSIFVPYAMGWYRQEPGKERELVAAISRRGGRTNYADSVKGRFTISRDNAKNTVYLQMNSLKPEDTAVYYCADGWRGVYYTRYDSWGQGTQVTVSS	high polyreactivity
QVQLVESGGGLVQAGGSLRLSCAASGRIFDSNAMGWYRQAPGKERELVAAITYSGGGTFYADSVKGRITISRDNEKNTDYLQMNSLKPEDTAVYYCAARTSGKYRYYYWGQGTQVTVSS	high polyreactivity
QVQLVESGGGLVQAGGSLRLSCAASGSIFHHNAMGWYRQAPGKERELVAAISSRSGNTYYADSVKGRFTISRDNAKNTVYLQMNSLKPEDTAVYYCAKAFRGHYWGQGTQVTVSS	high polyreactivity
QVQLVESGGGLVQAGGSLRLSCAASGSIFVSYAMGWYRQAPGKERELVAAITSAGTTYYADSVKGRFTISRDNAKNTVYLQMNSLKQEDTAVYYCNTDASFKRTRVSPETEYGYWGQGTQVTVSS	low polyreactivity
QVQLVESGGGLVQAGGSLRLSCAASGFTFSYYAMGWYRQAPRKERELVAAISGGGGTNYADSVKGRFTISRDNAKNTVYLQMNSLKPEDTAVYYCATDQFTQPSHRRDYWGQGTQVTVSS	low polyreactivity
QVQLVESGGGLVQAGGSLRLSCAASGRTFSQYAMGWYRQAPGKERELVAAISRGGGSTYYADSVKGRFTISRDNAKNTVYLQMNSLKPEDTAVYYCARATYFYYPFGSWGQGTQVTVSS	high polyreactivity
QVQLVESGGGLVQAGGSLRLSCAASGRTFGGYTMGWYRQAPGKERELVAAISWGGGSTYYADSVKGRFTISRDNAKNTVYLQMNSLKPEDTAVYYCAAVSPNLRLFGYRYRYEYWGQGTQVTVSS	high polyreactivity
QVQLVESGGGLVQAGGSLRLSCAASGRTIGGNAMGRYRQAPGKERELVAAISWSGGRTYYADSVKGRFTISRDNAKNTVYLQMNSLKPEDTAVYYCNKVGYGFHGDYDYWGQGTQVTVSS	high polyreactivity
QVQLVESGGGLVQAGGSLRLSCAASGSIFAYYAMGWYRQAPGKERELVARIRRRSSSTFYADSVKGRFTISRDNAKYTVYLQMNSLKPEDTAVYYCAVRGPGTSTYWYHEYEYWGQGTQVTVSS	high polyreactivity
QDQLVESGGGLVQAGGSLRLSCAASGIIFDDNTLGWYRQAPGKERELVAAISSSGGSTYYADSVKGRFSISRDNAKNTVYLQMNSLKPEDTAVYYCAAAVYYTYPYIVYRNYPEFDYWGQGTQVTVSS	low polyreactivity
QVQLVESGGGLVQAGGSLRLSCAASGSIFIRNAMGWYRQAPGKERELVAANSGSGSSTYYADSVKGRFTNSRDNAKNTVYLQMNSVKPEDTAVYYCNTDRTLSYQYGGYDYWGLGTQVTVSS	low polyreactivity
QVQLVESGGRLVQAGGSLRLSCAASGNIFYYYAMGCYTQAHGKERELVAAISADCGRTYYADSVKGRFTISRDTAKNTVYLQMNSLQPEDTAVYYWNVLGRARTQTRYNYWGQGTQVTVSS	high polyreactivity
QVQLVESGGGLVQAGGSLRLSCAASGRIVSGYAMVWYRQAPGKERELVAAITSGGSTNYADSVKGRFTLSRDNAKNTVYLQMNSLKPEDTAVYYCAADSREVSTTAYYYWGQGTQVTVSS	low polyreactivity
QVQLVESGGGLVQAGGSLRLSCAASGFTLKYNTMGWYRPAPGKERELVAAISRIGGRTYYADSVKGRFTISRDYAKNTVYLHKNSLKPEDTAVYYCAAVYRVCWRTYGYWGQGTQVTVSS	high polyreactivity
QVQLVESGGGLVQAGGSLRLSCAAYYAMGWYRQAPGKERELVAAISSTGRTNYADSVKGRFTISRDYAKNTVYLQMNSLKPEDTAVYYCNAGDPSGMDYWGQGTQVTVSS	low polyreactivity
QVQLVESGGGLVQAGGSLRLSCAASGITFGNYAMGWYRQAPGKERELVAAITGSGGRTYYADSVKGRFTISRDNAKNTVYLQMNSLKPEDTAVYYCNRRQYGRKKQYDYWGQGTQVTVSS	high polyreactivity
QVQLVETGGGLVQAGGSLRLSCAASGRTFDPNAMGWYRQAPGKERELVAAIDWTGGRTYYADSVKGRFTISRDNAKNTVYLQMNSLKPEDTAVYYCAARYYRFRSSRDYWGQGTQVTVSS	high polyreactivity
